{"source": "paper PMC10967246", "about": "(2023)", "assay_in_all_cases": "MST", "key": {"[1]": {"molecular_target": "GST-tag (Schistosoma japonicum)"}, "[2]": {"molecular_target": "T1, recombinant His-tagged PORB (Arabidopsis, UniProt P21218 67-401)", "T1 chain": "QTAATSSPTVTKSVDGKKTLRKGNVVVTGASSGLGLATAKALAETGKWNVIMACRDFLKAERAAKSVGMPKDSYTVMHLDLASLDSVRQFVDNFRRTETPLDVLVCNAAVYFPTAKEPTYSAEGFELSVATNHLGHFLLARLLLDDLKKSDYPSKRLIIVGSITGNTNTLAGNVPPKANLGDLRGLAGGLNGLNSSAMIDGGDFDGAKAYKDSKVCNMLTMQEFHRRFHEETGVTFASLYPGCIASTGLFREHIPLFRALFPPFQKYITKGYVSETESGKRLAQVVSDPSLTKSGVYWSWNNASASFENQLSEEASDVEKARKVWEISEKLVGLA"}, "[3]": {"molecular_target": "T2, recombinant His-tagged full-length GluTR1 (Arabidopsis, UniProt P42804 62-543)", "T2 chain": "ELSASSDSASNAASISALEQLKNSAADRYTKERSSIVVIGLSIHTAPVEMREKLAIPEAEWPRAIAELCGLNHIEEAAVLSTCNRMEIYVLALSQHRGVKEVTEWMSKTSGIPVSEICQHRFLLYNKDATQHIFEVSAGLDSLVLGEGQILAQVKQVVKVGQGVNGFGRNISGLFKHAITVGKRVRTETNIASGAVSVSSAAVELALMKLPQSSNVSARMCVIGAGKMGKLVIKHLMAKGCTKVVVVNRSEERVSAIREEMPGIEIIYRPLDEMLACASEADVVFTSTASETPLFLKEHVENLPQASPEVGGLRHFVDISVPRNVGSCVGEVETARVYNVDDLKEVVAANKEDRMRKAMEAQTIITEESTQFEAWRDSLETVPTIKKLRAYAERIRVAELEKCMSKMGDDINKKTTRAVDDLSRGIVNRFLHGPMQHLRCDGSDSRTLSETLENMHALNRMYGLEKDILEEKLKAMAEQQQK"}, "[4]": {"molecular_target": "T3, recombinant His-tagged PORA (Arabidopsis, UniProt Q42536 70-405)", "T3 chain": "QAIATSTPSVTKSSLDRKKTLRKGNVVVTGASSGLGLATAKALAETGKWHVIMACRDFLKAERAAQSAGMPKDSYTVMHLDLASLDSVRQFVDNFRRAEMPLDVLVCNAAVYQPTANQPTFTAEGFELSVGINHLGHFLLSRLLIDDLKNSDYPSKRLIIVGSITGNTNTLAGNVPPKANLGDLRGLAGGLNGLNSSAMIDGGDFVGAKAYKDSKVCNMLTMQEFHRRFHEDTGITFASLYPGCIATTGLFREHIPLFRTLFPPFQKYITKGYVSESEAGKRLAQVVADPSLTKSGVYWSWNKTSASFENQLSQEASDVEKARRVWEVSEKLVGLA"}, "[5]": {"molecular_target": "T4, recombinant His-tagged GluTR-binding protein (GBP) (Arabidopsis, UniProt Q9LU39 43-317)", "T4 chain": "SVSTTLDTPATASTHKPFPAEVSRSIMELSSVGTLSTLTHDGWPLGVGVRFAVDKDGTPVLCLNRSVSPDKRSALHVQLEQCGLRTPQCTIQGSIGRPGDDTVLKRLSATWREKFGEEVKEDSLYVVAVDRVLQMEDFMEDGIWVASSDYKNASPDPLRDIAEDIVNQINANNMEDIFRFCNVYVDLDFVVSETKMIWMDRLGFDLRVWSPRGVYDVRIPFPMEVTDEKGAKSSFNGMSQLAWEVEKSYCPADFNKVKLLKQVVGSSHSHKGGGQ"}, "[6]": {"molecular_target": "T5, ΔREDGluTR-6xHis (Arabidopsis thaliana)", "T5 chain": "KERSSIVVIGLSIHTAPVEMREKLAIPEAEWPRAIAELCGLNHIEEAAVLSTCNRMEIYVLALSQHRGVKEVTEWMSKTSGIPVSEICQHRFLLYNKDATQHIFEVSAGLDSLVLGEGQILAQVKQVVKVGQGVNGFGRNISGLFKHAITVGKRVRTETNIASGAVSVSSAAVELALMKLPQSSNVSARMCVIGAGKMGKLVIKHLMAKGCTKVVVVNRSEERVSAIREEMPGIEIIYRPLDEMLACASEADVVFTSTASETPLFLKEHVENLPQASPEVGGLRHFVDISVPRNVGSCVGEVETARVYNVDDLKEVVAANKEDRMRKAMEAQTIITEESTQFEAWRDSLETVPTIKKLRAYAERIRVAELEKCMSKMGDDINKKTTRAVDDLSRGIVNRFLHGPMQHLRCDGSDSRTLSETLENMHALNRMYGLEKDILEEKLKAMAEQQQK"}, "[7]": {"molecular_target": "T6, recombinant His-tagged PORC (Arabidopsis, UniProt O48741 68-401)", "T6 chain": "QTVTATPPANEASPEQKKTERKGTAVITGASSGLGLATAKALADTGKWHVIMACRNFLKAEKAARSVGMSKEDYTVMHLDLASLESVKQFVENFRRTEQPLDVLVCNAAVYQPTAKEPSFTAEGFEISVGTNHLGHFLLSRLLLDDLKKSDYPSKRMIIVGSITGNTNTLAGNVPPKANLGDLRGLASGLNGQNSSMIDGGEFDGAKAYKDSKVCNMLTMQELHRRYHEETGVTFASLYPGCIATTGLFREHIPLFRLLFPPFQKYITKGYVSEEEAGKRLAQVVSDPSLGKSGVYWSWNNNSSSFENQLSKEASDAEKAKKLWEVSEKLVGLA"}, "[8]": {"molecular_target": "T7, TPR domain of FLU, TPR_((FLU)), GST-tagged (Arabidopsis)", "T7 chain": "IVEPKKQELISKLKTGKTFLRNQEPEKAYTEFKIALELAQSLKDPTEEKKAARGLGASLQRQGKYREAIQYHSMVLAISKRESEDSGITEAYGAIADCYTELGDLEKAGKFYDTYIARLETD"}, "[9]": {"molecular_target": "T8, linker domain followed by the TPR domain of FLU, link TPR_((FLU)) (Arabidopsis)", "T8 chain": "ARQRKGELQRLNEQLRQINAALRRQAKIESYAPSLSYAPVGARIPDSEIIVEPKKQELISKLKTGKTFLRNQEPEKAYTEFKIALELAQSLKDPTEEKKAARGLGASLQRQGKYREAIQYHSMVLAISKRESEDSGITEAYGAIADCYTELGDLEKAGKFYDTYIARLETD"}}, "data": [{"binder": "recombinant 6×His-tagged TTP1, RED-NHS labelled (natural protein, labelled with the RED-NHS Protein Labeling Kit, degree of labeling approximately 1.0) MLMTLAATTSVSFNSKLLLFRIRCSDSNPKRGFGSKKEEKDPALQQRKSSSKQSVSVPRKAPGLNTQFEGKSGRSFDIDFDERLENIRRSALEQKKTEVVKEFGPIDYDAPVKSDQKTIGLGTKVGVGIAVVVFGLVFALGDFLPTGSDSPTKNTTVVKNQISEEEKATLQQRLKEFETTLNGTPQDQAALEGAAVTLTELGDYSRAAAFLEKLAKERPTDPDVFRLLGEVNYELNNYEGSIAAYKISEKVSKGIDLEVTRGLMNAYLAAKKPDEAVKFLLDTRERLNTKKTSTTDSVTDETNLDPIQVELLLGKAYSDWGHISDAIAVYDQLISAHPEDFRGYLAKGIILRENGSRGDAERMFIQARFFAPNKAKALVDRYSKL", "values": [{"measurement": "Kd", "setting": "[1]", "result": "> 400", "unit": "µM"}, {"measurement": "Kd", "setting": "[2]", "result": 476, "unit": "nM"}, {"measurement": "Kd", "setting": "[3]", "result": 295, "unit": "nM"}, {"measurement": "Kd", "setting": "[4]", "result": 1310, "unit": "nM"}, {"measurement": "Kd", "setting": "[5]", "result": 266, "unit": "nM"}, {"measurement": "Kd", "setting": "[6]", "result": 3.05, "unit": "µM"}, {"measurement": "Kd", "setting": "[7]", "result": 112, "unit": "nM"}, {"measurement": "Kd", "setting": "[8]", "result": 7.9, "unit": "µM"}, {"measurement": "Kd", "setting": "[9]", "result": 1610, "unit": "nM"}]}]}
